In the RNAGym collection of RNA variant scans (doi:10.1073/pnas.2313332121):

B1: TPR t1 (parent)
chain: GACCAAUCUGCCCUCAGAGCUCGAGAACAUCUUCGGAUGCAGAGGAGGCAGGCUUCGGUGGCGCGAUAGCGCCAACGUCCUCAACCUCCAAUGCAUCCCACCACAUGAUGAUGCCUGAAGAGCCUUGGUUUUUUG

Variants of: B1
Assay: polymerase ribozyme fitness, log enrichment relative to wild type (log ratio); higher = more active; in vitro selection for triplet polymerase activity
In short: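 Libraries of mutants in each subunit of a heterodimeric triplet polymerase ribozyme were generated by PCR and transcribed. In triplicate, each went through one in vitro selection round: annealing with biotinylated primer, partner subunit and triplets; frozen incubation at −7 °C; gel excision of extended constructs; streptavidin-bead capture; RT-PCR. Fitness, taken from Illumina sequencing of input and output libraries, is the logarithm of a genotype's enrichment over wild-type enrichment, averaged across replicates with inverse-variance weights. The logarithm is base 2, and genotypes needed ≥10 input reads and ≥1 read per output to be kept.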

Variant	polymerase ribozyme fitness (log ratio)
C88G U125G	-1.44
U55G U81A A119U	-1.33
C11U C53G C56U U87C G117U G120A G122A	-3.01
C13A G93U C98U	-4.03
G36U C123A	-0.268
C12G U32A	-3.25
C3A C4U A46U C114U	-4.9
U9G G93C A100U A118G	-1.35
C20A G23C U33C C62U U106A A108C G117C	-8.64
A2C C11G G17U G51C U55C C56G	-4.03
C72U C97G	-4.65
C3G A16U C40U C73A	-4.45
C56G U59C	-1.57
G19A C72A	-2.12
C31G G45C C64G G113U	-5.01
A2U C73A U130A U133G	-2.47
G36C C64U G113U	-3.55
G44C G47U U81A	-4.12
C11U C82G C102A U112A G120C U125G	-5
C12A A41U A90C	-1.95
A46G G60U C94U	-1.81
G39U G51U	-4.93
C102U U125G	-1.4
C8A G45C A105U	-1.9

Variant	polymerase ribozyme fitness (log ratio)
A43U U59A G60U	-1.17
C11A G61A C62A C80U G113C	-7.76
A2U C11G G48C G120U G128C	-0.718
G47U G71C U126G	-3.65
C4U C88A	-0.437
G10U C12G G17U G113A U126G	-4.16
C56U C62A A75U U81C C114A U125G	-4.69
C4U U9G A103U C124G	-3.47
C12U A74G U87A	-0.554
C114G G120U	-3.34
A43G C97U	-1.61
U21G C123G U126G	0.0716
A43U C49G U54A	-2.2
A5G U32C C70U G93A	-2.13
C8A G61C G122A	-0.605
A16U A37U C97U	-5.8
A2G C86G U126C	-2.8
G48U G58U G60U C82G C123U	0.461
G58U U106C C124U U130A	-0.269
A2C G69A C101U C104U G113A G127C U129C	-5.09
U126A G128C	-2.86
C64U A103C G117U	-6.58
A121U C123A C124G	2.17
G17A G47U U54C G71C G77U G117C	-8.04

Variant	polymerase ribozyme fitness (log ratio)
A26C C56U G61A G63U C115U U129G U131A	-4.23
C56G A95G A111U	-2.63
C20U C56G G63C	-5.5
G117U G120A U132A	-1.33
C11G A41C C56U C72U G93A C123G G135U	-4.47
G17A	-2.59
A18G G48U C72A U130G	-6.5
A18C U54G U87G A121U	-0.603
A27U A37C	-2.87
C3A G10U	-1.63
G60U C115A	0.226
A5U A6G A46C C115G	-2.4
C76G G120A	0.286
C22A C124A U134C	-4.93
U14A C15A C20U U55G	-3.71
G51C G61A C94U C97U	-3.52
U55C G57U U59A C89U	-2.23
C12U U38C G42U G61A U96A G122U	-4.37
G77C C101A G127A	-2.16
G69U U109C	-0.222
G107A U133G	-4.3
G63U U81G A121C	-3.58
C12A G51U A90G	-2.76
G45A G48U U112G	-2.7

Variant	polymerase ribozyme fitness (log ratio)
G10A U59C G61A A83G C114G C115U	-7.23
G36A C70A C114A	-5.75
A46C C72U U78C G93U G122A U133G	-3.05
A43U C49A G51C C56G G63C U106A	-7.03
G71U C73G	-5.51
C11U A50U G57A	-1.89
U55A C73U	0.172
C73G A121G	1.16
U59C	-0.0998
C3A A111C	-1.17
C56U U96G	-0.658
G58A C64U A66U U130A	-2.13
C70U C82G C104A A111U C115U G127U	-6.19
G10C U32C C114U	-0.699
C53A A74G	-0.303
U55C G60A C82A	-0.172
C4U C8G C28A G35U G48C C49G C64U C88U A103G A111U	-6.13
C4U A27U C64U A95C A111C A118G	-6.19
A6G A43G	-2.57
A37C G52A A83C U116C	-2.17
C12A C22U G45U C49U A68C G120U	-7.43
A111C U129G	-0.988
G10C C20A U54A C64U C88G A118U	-2.75
C89U G107A	-5.32

Variant	polymerase ribozyme fitness (log ratio)
C40U A46G G61U G110A U116A	-3.75
A24G C86G	-2.33
C8A A68G C73G U78G C101U U112A	-5.78
G45A C56U G69U G93U	-4.17
U9A G51C C86G U87A	-5.3
C40U G45U U55A C73U	-1.76
G69U A74U G135C	-0.511
U21A G77A	0.00839
C13U A16C A91G C104U	-1.72
C8G U54G C89G	-1.05
C62U G135A	-1.28
A83C G117A	-1.33
C12G A43C G48A	-2.3
G107C G135U	-5.77
A27U C56A C70U U96A	-5.71
C11G G45A C53G G57U C104G C114U	-6.51
C4U G48U C56G U78A C98U U112G G135A	-4.14
U33G G63U A90U A111G G120C	-6.96
G17U G63A U112A U125G	-3.29
G47C G113C G127C	-3.94
C82G A91C C115G	-2.49
G45U A50C C56A	-1.55
C8U U14A	-0.398
C56G G63A G77U G120C	0.612

Variant	polymerase ribozyme fitness (log ratio)
A16C G52A G60A	-2.03
A27C G39A A41G	-4.08
G65A G77A	-5.24
G63U G77C C124U	-0.341
A2G A6C C56U	0.182
C34G C115A	-5.21
C12U U112A	1.23
A2C C101U	-1.67
C3U G120U	-0.507
A41C C114A	-2.37
C20A A27G C40G U55C G71C G113A	-3.84
C8A C86G G113A	-1.25
C62A U87A U92A U116C	-6.88
C4U G36C G63A G69U G120A G127A	-0.365
C12U A37U	0.327
C89U G110C	-3.36
C8A C49U C73G	-1.1
C62G C86A C99U C101U A121G G122U	-5.18
A74C U126G	-2.5
C12A C13U A95U A100U G110A	-2.79
C12U C70G	-2.05
A43U G58U C62U A74C	-2.24
G42C C89U C101G	-2.74
G63C C64U A118G U133G	-4.77

Variant	polymerase ribozyme fitness (log ratio)
C31U G63A C85U C124G	-4.75
G42A G69C	-3.78
C20U U92A	-4.08
A18G C49A U92A C123A	-4.5
C11U G110A	-1.63
C56G C124A U131A	1.66
U78C C101U	-0.647
C15G G63U U96A C99U G117U	-5.62
G57U C82A C123U	0.32
G10U U87G C88G C98U G113A	-1.98
G63U C73A C97U	-4.28
G25A C70U	-5.76
C12U C15A G52A	-0.639
G44U G60A U129C	-1.49
A26U G58U	-4.66
A75G C123U U125G U126A	0.149
C13U G69A	-2.03
C11A G69C	-2.03
C11G G110U	-0.409
A43G G60A G107C C114U G120U U133G	-3.85
A41C G47C C49U C86A	-2.65
U7G U14A C56U U78C A84C C101A	-1.53
U9G C40U U54A C85A	-1.24
